We go through 34 sequences from paper PMC12207370, “Macrocyclic Peptide Probes for Immunomodulatory Protein CD59: Potent Modulators of Bacterial Toxin Activity and Antibody‐Dependent Cytotoxicity” (Angewandte Chemie (International Ed. in English), 2025).

The test has as its target T1, biotinylated CD59 (Homo sapiens, UniProt P13987).
T1 construct: Recombinant soluble human CD59 with an additional C-terminal cysteine residue
T1 sequence (P13987 26-102 limits assumed): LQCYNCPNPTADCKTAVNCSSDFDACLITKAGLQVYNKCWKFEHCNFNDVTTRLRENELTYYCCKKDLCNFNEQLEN
Kind of test: mRNA-display cyclic peptide screen against CD59-biotin, NGS abundance after 6th selection round. Particulars: for Counts (raw counts for peptide sequence), Seq I: NGS sample Seq I; for Counts (raw counts for peptide sequence), Seq I / Counts (raw counts for peptide sequence), Seq II / Counts Seq I / Counts Seq II: sheet R6 (6th selection round); for Counts (raw counts for peptide sequence), Seq II: NGS sample Seq II; for Percentage of the pool, averaged across the two sequencing samples: average of Seq I and Seq II; for Percentage of the pool, averaged across the two sequencing samples / Percentage of the pool, Seq I / Percentage of the pool, Seq II / Percentage Seq I / Percentage Seq II / Percentage Average: sheet R6; for Percentage of the pool, Seq I: counts normalised by total counts of NGS sample Seq I; for Percentage of the pool, Seq II: counts normalised by total counts of NGS sample Seq II; for Percentage Seq I: counts normalised by total counts of sample Seq I; for Percentage Seq I / Percentage Seq II: percentage of the pool; for Percentage Seq II: counts normalised by total counts of sample Seq II; for Percentage Average: percentage of the pool averaged across the two sequencing samples; for Counts Seq I / Counts Seq II: raw NGS counts of peptide sequence; for Counts Seq I: sequencing sample Seq I; for Counts Seq II: sequencing sample Seq II. A digest of the protocol: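 Peptide–mRNA fusions were made by in vitro translation with a customised PURE express kit. The kit lacked release factor 1 and methionine and was supplemented with […] initiator tRNA carrying N-chloroacetyl-d-tyrosine. Thioether macrocycles were formed, then enriched and amplified over iterative rounds on CD59-biotin immobilised on streptavidin beads. NGS read counts per sequence were recorded after the 6th selection round.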

SWTWGNRSSVLG: the “Counts (raw counts for peptide sequence), Seq I” value amounted to 35; the “Counts (raw counts for peptide sequence), Seq II” value was found to be 7; the “Percentage of the pool, averaged across the two sequencing samples” value was determined as 0.012%; the “Percentage of the pool, Seq I” value came out at 0.008%. Besides, the “Percentage of the pool, Seq II” value was 0.016%.

Regarding IQSGSQSWSRG, the “Percentage Seq I” value came out at 0.037%, the “Percentage Seq II” value is given as 0.035%, the “Percentage Average” value came to 0.036% and the “Counts Seq I” value came out at 164. The “Counts Seq II” value amounted to 15.

Turning to FVSGNRDHTRG, the “Counts (raw counts for peptide sequence), Seq I” value worked out at 51; the “Counts (raw counts for peptide sequence), Seq II” value is recorded as 5; the “Percentage of the pool, averaged across the two sequencing samples” value is 0.012%; the “Percentage of the pool, Seq I” value was determined as 0.012%. Besides, the “Percentage of the pool, Seq II” value is recorded as 0.012%.

Take FQYFGTGIAFG: the “Percentage Seq I” value came out at 0.301%, the “Percentage Seq II” value stood at 0.325%, the “Percentage Average” value is 0.313% and the “Counts Seq I” value is 1316. In addition, the “Counts Seq II” value stood at 140.

With TFRSRTSCGAV, the “Counts (raw counts for peptide sequence), Seq I” value was found to be 51; the “Counts (raw counts for peptide sequence), Seq II” value is given as 7; the “Percentage of the pool, averaged across the two sequencing samples” value is given as 0.014%; the “Percentage of the pool, Seq I” value turned out to be 0.012%. The “Percentage of the pool, Seq II” value turned out to be 0.016%.

In the case of VIWGSRLATGG, the “Percentage Seq I” value is reported as 0.025%, the “Percentage Seq II” value stood at 0.026%, the “Percentage Average” value is given as 0.025% and the “Counts Seq I” value came out at 109. Also, the “Counts Seq II” value is 11.

LCSVRGSNDWI: the “Percentage Seq I” value came to 0.073%, the “Percentage Seq II” value was found to be 0.074%, the “Percentage Average” value worked out at 0.074% and the “Counts Seq I” value was 320. Further, the “Counts Seq II” value is 32.

On to LWWSDFYLCVVVRQRQRQLGRGAE, for which the “Counts (raw counts for peptide sequence), Seq I” value was 65; the “Counts (raw counts for peptide sequence), Seq II” value is on record as 7; the “Percentage of the pool, averaged across the two sequencing samples” value came out at 0.016%; the “Percentage of the pool, Seq I” value is reported as 0.015%. In addition, the “Percentage of the pool, Seq II” value turned out to be 0.016%.

In the case of CFVLRRNFEGT, the “Counts (raw counts for peptide sequence), Seq I” value is on record as 53; the “Counts (raw counts for peptide sequence), Seq II” value is 5; the “Percentage of the pool, averaged across the two sequencing samples” value came out at 0.012%; the “Percentage of the pool, Seq I” value was determined as 0.012%. The “Percentage of the pool, Seq II” value was 0.012%.

With HVIGNRSFTRG, the “Percentage Seq I” value turned out to be 0.020%, the “Percentage Seq II” value is reported as 0.016%, the “Percentage Average” value is on record as 0.018% and the “Counts Seq I” value was determined as 87. Besides, the “Counts Seq II” value came out at 7.

Consider TYGSRFCPQYCAAAAAAARTGGG, for which the “Percentage Seq I” value is reported as 0.030%, the “Percentage Seq II” value was found to be 0.037%, the “Percentage Average” value is reported as 0.034% and the “Counts Seq I” value worked out at 133. The “Counts Seq II” value amounted to 16.

On to QPFWGCRTVAYS, for which the “Percentage Seq I” value came out at 0.033%, the “Percentage Seq II” value was 0.049%, the “Percentage Average” value is reported as 0.041% and the “Counts Seq I” value came out at 144. In addition, the “Counts Seq II” value stood at 21.

CFTNRLDNSST: the “Percentage Seq I” value came to 0.072%, the “Percentage Seq II” value is on record as 0.067%, the “Percentage Average” value worked out at 0.070% and the “Counts Seq I” value was determined as 314. Moreover, the “Counts Seq II” value was 29.

Take CFTLRVLDVSAV: the “Counts (raw counts for peptide sequence), Seq I” value is reported as 100; the “Counts (raw counts for peptide sequence), Seq II” value turned out to be 5; the “Percentage of the pool, averaged across the two sequencing samples” value is recorded as 0.017%; the “Percentage of the pool, Seq I” value came out at 0.023%. In addition, the “Percentage of the pool, Seq II” value was 0.012%.

Consider CFSRRLTVGAI, for which the “Counts (raw counts for peptide sequence), Seq I” value is given as 40; the “Counts (raw counts for peptide sequence), Seq II” value is on record as 6; the “Percentage of the pool, averaged across the two sequencing samples” value is reported as 0.012%; the “Percentage of the pool, Seq I” value came out at 0.009%. The “Percentage of the pool, Seq II” value turned out to be 0.014%.

As to IARGDRNHQFF, the “Counts (raw counts for peptide sequence), Seq I” value was 42; the “Counts (raw counts for peptide sequence), Seq II” value is 6; the “Percentage of the pool, averaged across the two sequencing samples” value is 0.012%; the “Percentage of the pool, Seq I” value is 0.010%. For the same sequence, the “Percentage of the pool, Seq II” value amounted to 0.014%.

CFLYRNNPDSV: the “Percentage Seq I” value was 0.069%, the “Percentage Seq II” value worked out at 0.067%, the “Percentage Average” value stood at 0.068% and the “Counts Seq I” value was 303. Further, the “Counts Seq II” value is reported as 29.

As to QWNRWYGMDER, the “Percentage Seq I” value was determined as 0.084%, the “Percentage Seq II” value is 0.097%, the “Percentage Average” value was 0.091% and the “Counts Seq I” value was found to be 369. The “Counts Seq II” value amounted to 42.

Take CYGDRTFIYAWS: the “Counts (raw counts for peptide sequence), Seq I” value is recorded as 53; the “Counts (raw counts for peptide sequence), Seq II” value came to 10; the “Percentage of the pool, averaged across the two sequencing samples” value is recorded as 0.018%; the “Percentage of the pool, Seq I” value came to 0.012%. Moreover, the “Percentage of the pool, Seq II” value came out at 0.023%.

Take CFLKRDRSASI: the “Counts (raw counts for peptide sequence), Seq I” value was 56; the “Counts (raw counts for peptide sequence), Seq II” value amounted to 7; the “Percentage of the pool, averaged across the two sequencing samples” value is 0.015%; the “Percentage of the pool, Seq I” value turned out to be 0.013%. Moreover, the “Percentage of the pool, Seq II” value is 0.016%.

Take SVRGDLYSVLG: the “Counts (raw counts for peptide sequence), Seq I” value is 74; the “Counts (raw counts for peptide sequence), Seq II” value was 7; the “Percentage of the pool, averaged across the two sequencing samples” value amounted to 0.017%; the “Percentage of the pool, Seq I” value was 0.017%. The “Percentage of the pool, Seq II” value came out at 0.016%.

Turning to CFAFRLSQTSV, the “Percentage Seq I” value is 0.179%, the “Percentage Seq II” value is listed as 0.146%, the “Percentage Average” value is 0.162% and the “Counts Seq I” value amounted to 782. Further, the “Counts Seq II” value stood at 63.

In the case of HCWARGSRNYT, the “Percentage Seq I” value is on record as 0.041%, the “Percentage Seq II” value worked out at 0.035%, the “Percentage Average” value came out at 0.038% and the “Counts Seq I” value was 180. Further, the “Counts Seq II” value came to 15.

FVTGSRDHTRG: the “Percentage Seq I” value was 0.074%, the “Percentage Seq II” value turned out to be 0.053%, the “Percentage Average” value was determined as 0.063% and the “Counts Seq I” value is 322. Further, the “Counts Seq II” value is recorded as 23.

FVTSNRDHTRG: the “Counts (raw counts for peptide sequence), Seq I” value came out at 23; the “Counts (raw counts for peptide sequence), Seq II” value came to 6; the “Percentage of the pool, averaged across the two sequencing samples” value was 0.010%; the “Percentage of the pool, Seq I” value is 0.005%. Moreover, the “Percentage of the pool, Seq II” value is 0.014%.

SYGGRTFIYAWS: the “Counts (raw counts for peptide sequence), Seq I” value worked out at 62; the “Counts (raw counts for peptide sequence), Seq II” value stood at 5; the “Percentage of the pool, averaged across the two sequencing samples” value was found to be 0.013%; the “Percentage of the pool, Seq I” value is 0.014%. Moreover, the “Percentage of the pool, Seq II” value came to 0.012%.

Take HVFGDRSFTRG: the “Percentage Seq I” value stood at 0.028%, the “Percentage Seq II” value is 0.026%, the “Percentage Average” value is 0.027% and the “Counts Seq I” value came out at 124. In addition, the “Counts Seq II” value worked out at 11.

With VARGNSNTVWG, the “Percentage Seq I” value is on record as 0.019%, the “Percentage Seq II” value came to 0.021%, the “Percentage Average” value is reported as 0.020% and the “Counts Seq I” value amounted to 85. The “Counts Seq II” value was 9.

As for CFSYRIRSAYDL, the “Percentage Seq I” value stood at 0.028%, the “Percentage Seq II” value is given as 0.030%, the “Percentage Average” value is 0.029% and the “Counts Seq I” value was determined as 124. In addition, the “Counts Seq II” value is reported as 13.

As to WRDRFDRCVL, the “Percentage Seq I” value was 0.020%, the “Percentage Seq II” value was 0.032%, the “Percentage Average” value was found to be 0.026% and the “Counts Seq I” value came to 86. In addition, the “Counts Seq II” value came out at 14.

In the case of CFSRRLTAGAT, the “Percentage Seq I” value was found to be 0.045%, the “Percentage Seq II” value amounted to 0.035%, the “Percentage Average” value is 0.040% and the “Counts Seq I” value amounted to 195. The “Counts Seq II” value came out at 15.

With GYLNECHALYTR, the “Counts (raw counts for peptide sequence), Seq I” value is 63; the “Counts (raw counts for peptide sequence), Seq II” value is reported as 9; the “Percentage of the pool, averaged across the two sequencing samples” value came out at 0.018%; the “Percentage of the pool, Seq I” value stood at 0.014%. In addition, the “Percentage of the pool, Seq II” value was 0.021%.

As for SAWGNQQIQYY, the “Percentage Seq I” value is 0.028%, the “Percentage Seq II” value is listed as 0.026%, the “Percentage Average” value came out at 0.027% and the “Counts Seq I” value is listed as 124. For the same sequence, the “Counts Seq II” value is on record as 11.

In the case of FVRGDLYSILG, the “Counts (raw counts for peptide sequence), Seq I” value amounted to 50; the “Counts (raw counts for peptide sequence), Seq II” value was 6; the “Percentage of the pool, averaged across the two sequencing samples” value worked out at 0.013%; the “Percentage of the pool, Seq I” value turned out to be 0.011%. Besides, the “Percentage of the pool, Seq II” value was 0.014%.
